This note sets out measurements from article PMC5800842.

Assay [1] addresses LGR4 (human (endogenous in HAP1)) (UniProt Q9BXB1).

Substitutions are numbered along the chain they refer to. Numbers in names are those of the source.

B1: HA-RSPO3 R67A/Q72A-Tev-Fc-Avi-1D4 (Fc fusion)
chain: QNASRGRRQRRMHPNVSQGCQGGCATCSDYNGCLSCKPRLFFALEAIGMKAIGVCLSSCPSGYYGTRYPDINKCTKCKADCDTCFNKNFCTKCKSGFYLHLGKCLDNCPEGLEANNHTMECVSIVHCEVSEWNPWSPCTKKGKTCGFKRGTETRVREIIQHPSAKGNLCPPTNETRKCTVQRKKCQKGERGKKGRERKRKKPNKGESKEAIPDSKSLESSKEIPEQRENKQQQKKRKVQDKQKSVSVSTVH
Consider B1, for which, in the assay with ZNRF3/RNF43, the EC50 of potentiation of WNT reporter fluorescence in WT HAP1-7TGP cells with 1.43% WNT3A CM, fold over wild-type RSPO3 was found to be 21 fold.

B2: HA-RSPO3 F106E/F110E-Tev-Fc-Avi-1D4 (Fc fusion)
chain: B1 chain with A46R, A51Q, F85E, F89E
For the molecule B2, in assay [1], the EC50 of potentiation of WNT reporter fluorescence in WT HAP1-7TGP cells with 1.43% WNT3A CM, fold over wild-type RSPO3 was 2.9 fold and the efficacy (maximum WNT reporter activity) in WT HAP1-7TGP cells with 1.43% WNT3A CM, reduction against wild-type RSPO3 was determined as 48 % reduction.
